B1: human monoclonal antibody 8J16 (antibody, V domains shown)
VH: QVQLQESGPGLVKPSETLSLTCSVSGGFTSSYYWSWIRQAPGKGLEWIGYVYYGESTDYNPSLKSRATISIDTSKNQFSLKLSSVTAADTAVYYCAREVDKRGFDYWGQGALVTVSS
VL: EIVLTQSPGTLSLSPGERATLSCRASQSVSGGYLAWYQQEPGQAPRLVIYGASSRATGIPDRFSASGSGTDFTLTITRLEPEDFAVYYCQQYGRTPLTFGGGTKVEIK
B2: human monoclonal antibody 8L13 (antibody, V domains shown)
VH: QVQLLESGGGVVQPGRSLRLSCAASGFTFSNYGMHWVRQAPGKGLEWVAVIWNDGSKKYYAESVKGRFTISRDNSKNTVYLQMNSLRAEDTAVYYCARDEGVQMVFAMPDYGMDVWGQGTTVTVSS
VL: SYELTQPPSVSVSPGQTASITCSGDKLGDKFACWYQQRPGQSPILVIYQDSKRPSGIPERFSGSNSGNTATLTIRGTQAMDEADYYCQAWDSSTAHYVFGTGTKVTVL
B3: human monoclonal antibody 7I13 (antibody, V domains shown)
VH: QVQLVESGGGVVQPGRSLRLSCAASGFTFSNYGMHWVRQGPGKGLEWVAVISYDASSKYYTDSVQGRFTISRDNSKNTLFLQMNSLRGEDTAVYYCAKALRYLDWFLSDPFDYWGQGTLVTVSS
VL: EIVLTQSPGTLSLSPGERATLSCRASQSVSSDFLAWYQQKPGQAPRLLIYGASSRATGIPDRFSGSGSGTDFTLTISRLEPEDFAVYYCQQYAASPPFGQGTRLEIK
B4: human monoclonal antibody 15D8 (antibody, V domains shown)
VH: EVQLVQSGAEVKKPGESLKISCQASGYSFTNYWIAWVRQMPGKGLEWMGIIYPGDSDIKYSPSFRGQVTISADKSISNAFLQWRSLRASDTAMYYCARHAIRGDGFDYWGQGTLVTVSS
VL: SYELTQPPSVSVSPGQTATITCSGDKLGEKYACWYQQKPGQSPVLVMYQDTKRPSGIPERFSGSNSGNTATLTISGTRAMDEADYYCQAWDTNTVIFGGGTKLTVL
B5: human monoclonal antibody 10P3 (antibody, V domains shown)
VH: EVQLVESGGGLVRPGGSLRLSCAASGFTFHNYRMNWVRQAPGKGLEWVANIKQDGSEKSYVDSVRGRFTTSRDNSKNSLYLQINSLRAEDTAVYYCARGEGYTYGVVYSYSAMDVWGQGTTVIVSS
VL: SYELTQPPSVSVSPGQTARITCSGNVLPNQYASWYQQKPGQAPVLVIYKDTERPSGIPGRFSGSSSGTTVTLTISGVQAEDEADYYCQSADSSGADYVFGTGTKVTVL
B6: human monoclonal antibody 8I21 (antibody, V domains shown)
VH: LVELVESGGGVVQPGRSLRLSCAASGFTFSSDGMHWVRQSPGRGLEWVAFISSDGSTPYYADSVKGRFTISRDNSKNTLYLQMNSLRAEDTAMYFCAKDWALFRWLRTFDHWGQGTLVTVSS
VL: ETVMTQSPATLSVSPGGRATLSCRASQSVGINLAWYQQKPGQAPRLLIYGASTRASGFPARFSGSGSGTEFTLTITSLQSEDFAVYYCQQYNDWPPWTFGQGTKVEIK

Legend:
Test in all cases: cell-based or functional assay
[1] = biological target: T1, pUL128pUL130pUL131 (HEK293T cells transfected with the HCMV genes) (HCMV, UniProt P16837 1-171; P16772 1-214; F5HET4 19-129)
T1 sequence (looked up) 1: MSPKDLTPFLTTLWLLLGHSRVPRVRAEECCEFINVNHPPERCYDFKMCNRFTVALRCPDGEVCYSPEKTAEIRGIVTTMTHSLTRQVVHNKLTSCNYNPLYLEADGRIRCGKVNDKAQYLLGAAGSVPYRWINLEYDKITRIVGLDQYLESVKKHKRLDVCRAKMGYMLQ
T1 sequence (looked up) 2: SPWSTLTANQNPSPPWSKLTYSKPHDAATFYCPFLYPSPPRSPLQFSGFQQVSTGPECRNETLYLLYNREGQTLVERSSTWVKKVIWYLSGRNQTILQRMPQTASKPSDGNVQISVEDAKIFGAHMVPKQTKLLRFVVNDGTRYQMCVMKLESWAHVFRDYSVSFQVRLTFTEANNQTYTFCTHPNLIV
T1 sequence (looked up) 3: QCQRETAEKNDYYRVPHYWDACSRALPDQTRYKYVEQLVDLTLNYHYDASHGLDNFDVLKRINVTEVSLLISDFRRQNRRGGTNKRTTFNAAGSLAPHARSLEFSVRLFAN

[2] = biological target: T2, pUL130pUL131 (HEK293T cells transfected with the HCMV genes) (HCMV, UniProt P16772 1-214; F5HET4 19-129)
T2 sequence (looked up) 1: T1 sequence (looked up) 2
T2 sequence (looked up) 2: T1 sequence (looked up) 3

[3] = biological target: T3, pUL128 (HEK293T cells transfected with the HCMV gene) (HCMV, UniProt P16837 1-171, limits assumed)
T3 sequence (looked up): T1 sequence (looked up) 1

[4] = biological target: T4, gHgLpUL128pUL130 (HEK293T cells transfected with the HCMV genes) (HCMV, UniProt P12824 24-743; P16832 31-278; P16837 1-171; P16772 1-214)
T4 sequence (looked up) 1: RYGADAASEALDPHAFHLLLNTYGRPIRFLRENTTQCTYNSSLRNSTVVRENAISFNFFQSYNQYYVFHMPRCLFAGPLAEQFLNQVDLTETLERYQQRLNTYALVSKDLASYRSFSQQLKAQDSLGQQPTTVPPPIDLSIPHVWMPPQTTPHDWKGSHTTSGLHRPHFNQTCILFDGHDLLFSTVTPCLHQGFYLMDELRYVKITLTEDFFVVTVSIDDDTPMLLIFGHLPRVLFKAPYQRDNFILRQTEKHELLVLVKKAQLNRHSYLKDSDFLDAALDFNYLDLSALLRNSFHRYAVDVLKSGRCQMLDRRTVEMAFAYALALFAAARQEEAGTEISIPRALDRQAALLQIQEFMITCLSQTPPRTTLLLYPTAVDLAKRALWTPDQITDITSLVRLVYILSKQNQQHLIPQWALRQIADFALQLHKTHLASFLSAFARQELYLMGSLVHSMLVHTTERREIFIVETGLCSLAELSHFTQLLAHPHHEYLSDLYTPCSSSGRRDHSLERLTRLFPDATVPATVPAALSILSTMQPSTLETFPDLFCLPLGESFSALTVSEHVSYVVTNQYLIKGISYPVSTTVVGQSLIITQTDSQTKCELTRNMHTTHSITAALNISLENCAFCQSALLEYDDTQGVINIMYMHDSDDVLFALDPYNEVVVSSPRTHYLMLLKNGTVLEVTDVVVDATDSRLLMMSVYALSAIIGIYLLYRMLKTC
T4 sequence (looked up) 2: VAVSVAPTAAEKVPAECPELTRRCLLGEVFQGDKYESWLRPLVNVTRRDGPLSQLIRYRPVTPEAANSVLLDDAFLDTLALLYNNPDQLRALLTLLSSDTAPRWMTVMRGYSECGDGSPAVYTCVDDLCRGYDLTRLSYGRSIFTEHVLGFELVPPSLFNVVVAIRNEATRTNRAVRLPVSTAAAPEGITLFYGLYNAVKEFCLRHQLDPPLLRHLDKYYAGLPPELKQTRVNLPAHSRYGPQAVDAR
T4 sequence (looked up) 3: T1 sequence (looked up) 1
T4 sequence (looked up) 4: T1 sequence (looked up) 2

Binder | Log IC80, neutralization of HCMV infection of epithelial cells [1] | Log IC80, neutralization of HCMV infection of epithelial cells [2] | further results
B1 | -12.3 log IC80 (concentration unit not printed) | – | –
B2 | – | -11.6 log IC80 (concentration unit not printed) | –
B3 | -11 log IC80 (concentration unit not printed) | – | –
B4 | – | – | Log IC80, neutralization of HCMV infection of epithelial cells [3]: -11 log IC80 (concentration unit not printed)
B5 | – | -10.5 log IC80 (concentration unit not printed) | –
B6 | – | – | Log IC80, neutralization of HCMV infection of epithelial cells [4]: -9.5 log IC80 (concentration unit not printed)
